Data published in PMC3072069.

Key:
[1] = target: T1, CFP1 CXXC domain (Homo sapiens, UniProt Q9P0U4 161-222); assay: ITC
[2] = target: CFP1 CXXC R213A (Homo sapiens, UniProt Q9P0U4 161-222, R213A); assay: ITC
[3] = target: CFP1 CXXC Y216A (Homo sapiens, UniProt Q9P0U4 161-222, Y216A); assay: ITC
[4] = target: CFP1 CXXC domain, longer construct (Homo sapiens, UniProt Q9P0U4 152-222); assay: ITC
[5] = target: T1, CFP1 CXXC domain; assay: EMSA
[6] = target: T1, CFP1 CXXC domain; assay: crystal structure

T1 sequence (Q9P0U4 161-222): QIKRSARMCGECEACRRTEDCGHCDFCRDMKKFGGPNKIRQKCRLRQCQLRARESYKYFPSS
Sequence of CFP1 CXXC domain, longer construct (Q9P0U4 152-222): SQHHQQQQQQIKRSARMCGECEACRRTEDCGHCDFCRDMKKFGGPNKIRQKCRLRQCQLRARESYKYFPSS
Sequence of CFP1 CXXC R213A (Q9P0U4 161-222 R213A): as the sequence (Q9P0U4 161-222) above, with R53A counted along it
Sequence of CFP1 CXXC Y216A (Q9P0U4 161-222 Y216A): as the sequence (Q9P0U4 161-222) above, with Y56A counted along it

Row | Binder | Kd [1] [µM] | binding result [6] | other results
1 | GCGG (dsDNA) DNA 1: GCCAGCGGTGGC DNA 2: GCCACCGCTGGC | 3 ± 0.2 | – | –
2 | CCGG1 (dsDNA) DNA 1: GCCACCGGTGGC DNA 2: GCCACCGGTGGC | 3.5 ± 0.3 | – | Kd [2]: 179 ± 30 µM; Kd [3]: 11 ± 2 µM; Kd [4]: 2700 ± 300 nM
3 | GC (GGCC), no CpG (dsDNA) DNA 1: GCCAGGCCTGGC DNA 2: GCCAGGCCTGGC | – | – | binding result [5]: no binding
4 | CCGG2 (dsDNA) DNA 1: GCCCCCGGGGGC DNA 2: GCCCCCGGGGGC | 4.4 ± 0.3 | – | –
5 | TCGT (dsDNA) DNA 1: GCCATCGTTGGC DNA 2: GCCAACGATGGC | – | binds | –
6 | ACGT (dsDNA) DNA 1: GCCAACGTTGGC DNA 2: GCCAACGTTGGC | – | binds | –
7 | TCGA (dsDNA) DNA 1: GCCATCGATGGC DNA 2: GCCATCGATGGC | – | binds | –
8 | ACGG (dsDNA) DNA 1: GCCAACGGTGGC DNA 2: GCCACCGTTGGC | 2.5 ± 0.2 | – | –
